T1: CXCR4 mutation library clone 465 (F189L, S319P, V155E) (human, UniProt P61073 1-352)
T1 chain: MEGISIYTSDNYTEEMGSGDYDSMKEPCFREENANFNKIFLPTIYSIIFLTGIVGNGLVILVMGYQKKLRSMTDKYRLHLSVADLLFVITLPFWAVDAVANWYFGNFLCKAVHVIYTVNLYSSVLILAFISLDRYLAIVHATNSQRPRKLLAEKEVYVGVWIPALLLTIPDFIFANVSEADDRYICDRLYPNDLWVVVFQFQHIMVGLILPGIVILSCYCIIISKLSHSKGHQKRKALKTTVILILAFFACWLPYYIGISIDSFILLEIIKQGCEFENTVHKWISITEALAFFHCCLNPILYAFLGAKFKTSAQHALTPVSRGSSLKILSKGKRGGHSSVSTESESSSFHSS

T2: CXCR4 mutation library clone 3728 (D187A, Y157C) (human, UniProt P61073 1-352)
T2 chain: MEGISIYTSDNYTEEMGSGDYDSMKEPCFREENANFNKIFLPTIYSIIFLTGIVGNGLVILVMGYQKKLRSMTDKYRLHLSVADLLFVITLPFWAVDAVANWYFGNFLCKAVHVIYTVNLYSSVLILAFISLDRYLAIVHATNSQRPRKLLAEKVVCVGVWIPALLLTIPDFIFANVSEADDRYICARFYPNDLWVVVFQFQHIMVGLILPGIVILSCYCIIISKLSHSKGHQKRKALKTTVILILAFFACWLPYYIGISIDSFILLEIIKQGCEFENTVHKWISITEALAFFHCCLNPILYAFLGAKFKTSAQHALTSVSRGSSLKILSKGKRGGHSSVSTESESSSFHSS

T3: CXCR4 mutation library clone 2834 (E179V, G258E) (human, UniProt P61073 1-352)
T3 chain: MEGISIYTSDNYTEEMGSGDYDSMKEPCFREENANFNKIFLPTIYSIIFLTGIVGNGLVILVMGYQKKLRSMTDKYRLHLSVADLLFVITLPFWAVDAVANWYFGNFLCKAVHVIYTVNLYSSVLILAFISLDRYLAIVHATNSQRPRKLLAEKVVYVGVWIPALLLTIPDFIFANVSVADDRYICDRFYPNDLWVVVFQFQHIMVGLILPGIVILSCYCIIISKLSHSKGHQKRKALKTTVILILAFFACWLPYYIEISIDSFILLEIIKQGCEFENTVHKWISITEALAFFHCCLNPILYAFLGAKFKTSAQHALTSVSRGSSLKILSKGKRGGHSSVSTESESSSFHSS


Key:
[1] = target: CXCR4 mutation library clone 2396 (S178C) (human, UniProt P61073 1-352); assay: immunofluorescence on HEK-293T expressing the clone, normalised to wild type
[2] = target: T1, CXCR4 mutation library clone 465 …; assay: as above
[3] = target: CXCR4 mutation library clone 2270 (V196E) (human, UniProt P61073 1-352); assay: as above
[4] = target: T2, CXCR4 mutation library clone 3728 …; assay: as above
[5] = target: CXCR4 mutation library clone 2084 (D187V) (human, UniProt P61073 1-352); assay: as above
[6] = target: T3, CXCR4 mutation library clone 2834 …; assay: as above
[7] = target: T4, CXCR4 mutation library (Human CXCR4-short) (Homo sapiens, UniProt P61073, D187V); assay: Shotgun mutagenesis epitope mapping, immunofluorescence on CXCR4 mutation library in HEK-293T; assay type: binding; settings: residue D187; mutation D187V; normalized to wild type; 3 experiments (+/−range)
T4 construct: expressed in transfected cells; host or cells: HEK-293T, transient, 384-well
T4 sequence (P61073 whole entry D187V): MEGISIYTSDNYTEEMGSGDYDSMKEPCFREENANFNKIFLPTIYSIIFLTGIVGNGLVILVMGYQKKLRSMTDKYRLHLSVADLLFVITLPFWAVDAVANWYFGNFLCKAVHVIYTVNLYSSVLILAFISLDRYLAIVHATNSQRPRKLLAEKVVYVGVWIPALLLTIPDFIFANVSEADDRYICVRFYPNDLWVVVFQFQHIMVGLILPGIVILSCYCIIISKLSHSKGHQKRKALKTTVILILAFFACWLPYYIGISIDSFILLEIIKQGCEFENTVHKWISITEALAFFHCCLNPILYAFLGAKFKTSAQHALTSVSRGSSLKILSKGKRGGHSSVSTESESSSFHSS
Description: (§1) Method: See e.g. Willis, et al. 2008. Virus-like particles as quantitative probes of membrane protein interactions. Biochemistry 47:6988-6990. In short, the method comprises the following steps:
(§2) Create comprehensive mutation library • Start with a cDNA in eukaryotic expression plasmid • Create library where every amino acid is individually mutated
(§3) Express each clone within living cells in 384-well microplates
(§4) Detect structure and/or function of proteins
(§5) • Parental plasmid: Human CXCR4-short (SEQ ID NO: 6, 352 amino acids) • Epitope tags: N-terminal Flag (to detect surface expression), C-terminal V5 (to detect full-length translation) • Cell types used for immunofluorescence assays: HEK-293T
(§6) The immunofluorescence assay conditions (to detect binding) were optimized for the nanbodies to be tested. In short, 384-well immunofluorescence (IF) assay using HEK-293T cells transiently was transfected with different concentrations of CXCR4 DNA. The plate was first incubated with different concentrations of either Nanobody 238D2 or 238D4, then with 9E10, and finally with Cy3. The commercially-available anti-CXCR4 MAb 12G5 was used as an IF control.
(§7) Mapping Nanobody Binding to CXCR4 Mutation Library: The entire library was screened in triplicate with each Nanobody. The data was background-subtracted and normalized to wild type reactivity and averaged across the repeats. Nanobody binding was plotted as a function of average surface expression, and measured by immunoreactivity of an N-terminal Flag epitope tag. Thresholds of 60% Flag and 30% Nanobody were used to identify critical clones. Using standard IF conditions, we identified 1 critical residue (2 critical clones). Using increased stringency assay conditions (high salt), we identified 5 additional residues (Tables C-3 and C-4).

[8] = target: T5, CXCR4 mutation library (Human CXCR4-short) (Homo sapiens, UniProt P61073, E277G); assay: as above; assay type: binding; settings: residue E277; mutation E277G; normalized to wild type; 3 experiments (+/−range); 238D2 critical residues under high stringency
T5 construct: expressed in transfected cells; host or cells: HEK-293T, transient, 384-well
T5 sequence (P61073 whole entry E277G): as the sequence (P61073 whole entry D187V) above, with V187D, E277G counted along it
Description: as §1, §2, §3, §4, §5, §6, §7

[9] = target: T6, CXCR4 mutation library (Human CXCR4-short) (Homo sapiens, UniProt P61073, E277A/I245V/N298S); assay: as above; assay type: binding; settings: residue E277; mutations E277A, I245V, N298S; normalized to wild type; 3 experiments (+/−range); 238D2 critical residues under high stringency
T6 construct: expressed in transfected cells; host or cells: HEK-293T, transient, 384-well
T6 sequence (P61073 whole entry I245V/E277A/N298S): as the sequence (P61073 whole entry D187V) above, with V187D, I245V, E277A, N298S counted along it
Description: as §1, §2, §3, §4, §5, §6, §7

[10] = target: T7, CXCR4 mutation library (Human CXCR4-short) (Homo sapiens, UniProt P61073, V196E); assay: as above; assay type: binding; settings: residue V196; mutation V196E; normalized to wild type; 3 experiments (+/−range); 238D2 critical residues under high stringency
T7 construct: expressed in transfected cells; host or cells: HEK-293T, transient, 384-well
T7 sequence (P61073 whole entry V196E): as the sequence (P61073 whole entry D187V) above, with V187D, V196E counted along it
Description: as §1, §2, §3, §4, §5, §6, §7

[11] = target: T8, CXCR4 mutation library (Human CXCR4-short) (Homo sapiens, UniProt P61073, N192K); assay: as above; assay type: binding; settings: residue N192; mutation N192K; normalized to wild type; 3 experiments (+/−range); 238D2 critical residues under high stringency
T8 construct: expressed in transfected cells; host or cells: HEK-293T, transient, 384-well
T8 sequence (P61073 whole entry N192K): as the sequence (P61073 whole entry D187V) above, with V187D, N192K counted along it
Description: as §1, §2, §3, §4, §5, §6, §7

Molecule | % immunofluorescence [1] | % immunofluorescence [2] | % immunofluorescence [3] | % immunofluorescence [4] | % immunofluorescence [5] | % immunofluorescence [6] | % immunofluoresence, clone 2084 [7] | % immunofluoresence, clone 3622 [8] | % immunofluoresence, clone 185 [9] | % immunofluoresence, clone 2270 [10] | % immunofluoresence, clone 914 [11]
Nanobody 238D4 (VHH) VHH: EVQLMESGGGLVQAGGSLRLSCAASGRTFNNYAMGWFRRAPGKEREFVAAITRSGVRSGVSAIYGDSVKDRFTISRDNAKNTLYLQMNSLKPEDTAVYTCAASAIGSGALRRFEYDYSGQGTQVTVSS | 28.2% | 12.2% | 94% | -16.4% | -8% | 19.5% | – | – | – | – | –
238D2: monovalent anti CXCR4 Nanobody, SEQ ID NO: 2 (protein, Nanobody) VHH: EVQLVESGGGLVQTGGSLRLSCAASGFTFSSYAMSWVRQAPGKGLEWVSGIKSSGDSTRYAGSVKGRFTISRDNAKNMLYLQMYSLKPEDTAVYYCAKSRVSRTGLYTYDNRGQGTQVTVSS | – | – | – | – | – | – | 93.6 (5.2) % | 19.5 (11.9) % | 35.5 (12.3) % | 20.6 (32.9) % | 8.3 (3.6) %
